This test deals with human Toll-like receptor 5 (hTLR5) on HEK-Blue hTLR5 cells (human) (UniProt O60602).

The values below come from publication PMC8438039.

UniProt O60602, sequence (O60602 21-858): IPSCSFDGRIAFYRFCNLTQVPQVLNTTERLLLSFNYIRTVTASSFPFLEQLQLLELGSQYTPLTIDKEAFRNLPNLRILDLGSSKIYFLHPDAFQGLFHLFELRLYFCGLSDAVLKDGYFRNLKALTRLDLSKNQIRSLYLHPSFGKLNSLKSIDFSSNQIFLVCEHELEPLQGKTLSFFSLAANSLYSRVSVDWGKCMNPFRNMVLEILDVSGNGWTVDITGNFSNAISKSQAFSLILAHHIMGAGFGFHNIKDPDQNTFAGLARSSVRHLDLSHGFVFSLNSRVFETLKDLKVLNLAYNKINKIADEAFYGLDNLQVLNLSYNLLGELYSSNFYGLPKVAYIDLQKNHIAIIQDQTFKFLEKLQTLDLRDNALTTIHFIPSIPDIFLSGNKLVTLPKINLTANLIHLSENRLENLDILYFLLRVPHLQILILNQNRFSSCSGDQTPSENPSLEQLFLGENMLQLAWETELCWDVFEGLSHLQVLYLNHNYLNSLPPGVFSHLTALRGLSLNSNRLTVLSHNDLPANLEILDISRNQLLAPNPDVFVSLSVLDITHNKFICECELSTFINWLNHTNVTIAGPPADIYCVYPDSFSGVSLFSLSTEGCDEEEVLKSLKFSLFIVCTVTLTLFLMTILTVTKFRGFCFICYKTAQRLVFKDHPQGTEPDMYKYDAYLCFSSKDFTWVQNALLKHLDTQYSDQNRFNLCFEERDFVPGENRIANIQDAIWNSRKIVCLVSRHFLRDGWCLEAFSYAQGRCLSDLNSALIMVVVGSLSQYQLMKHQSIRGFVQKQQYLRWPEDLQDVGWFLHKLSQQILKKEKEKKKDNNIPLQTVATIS

For the substance “Vibrio vulnificus flagellin B (FlaB), wild type recombinant (natural protein)”, the EC50 of TLR5-dependent NF-κB activation in HEK-Blue hTLR5 cells (OD 620; 0.03719 nM to 76.16 nM protein) was 4.18 nM. Then “deimmunized FlaB (dFlaB), FlaB lacking residues 175-193 (natural protein)”, with 9.01 nM; and “D2D3 domain-depleted FlaB (FlaB^ΔD2D3) (natural protein)”, with 13.2 nM.
